Laboratory results from patent US10202593B2, “Evolved sortases and uses thereof” (President and Fellows of Harvard College, priority 2013, dated 2019).
Changes are numbered by the printed parent chain. Names and notes keep the numbering of the source. Like-named read-outs stand apart in the source and are kept apart here.

B1: eSrtA(2A-9): P94R, S102C, A104H, E105D, K138P, K152I, N160K, K162H, T164N, D165A, K173E, I182V, K190E, T196S (protein)
chain: QAKPQIPKDKSKVAGYIEIPDADIKEPVYPGPATREQLNRGVCFHDENESLDDQNISIAGHTFIDRPNYQFTNLKAAKPGSMVYFKVGNETRIYKMTSIRKVHPNAVEVLDEQEGKDKQLTLVTCDDYNEETGVWESRKIFVATEVK
B2: eSrtA (protein)
chain: QAKPQIPKDKSKVAGYIEIPDADIKEPVYPGPATREQLNRGVSFAEENESLDDQNISIAGHTFIDRPNYQFTNLKAAKKGSMVYFKVGNETRKYKMTSIRNVKPTAVEVLDEQKGKDKQLTLITCDDYNEETGVWETRKIFVATEVK
B3: eSrtA(4S-9): P94R, N98D, S102C, A104V, A118T, F122A, K134R, F144L, D160N, D165A, I182V, E189F, K190E, K196T (protein)
chain: B2 chain with N39D, S43C, A45V, A59T, F63A, K75R, F85L, I123V, E130F

Key:
LRETG = molecular target: T1, LRETG (Staphylococcus aureus, UniProt Q2FV99, A104H/D160K/D165A/E105D/I182V/K138P/K152I/K162H/K173E/K190E/K196S/P94R/S102C/T164N); experiment: In vitro sortase kinetics HPLC assay, LRETG substrate; format: biochemical
T1 construct: All expressed sortases lack the N-terminal 59 amino acids; inferred from Ni-NTA purification; made in house; host or cells: E. coli BL21 (DE3), pET29
T1 sequence (Q2FV99 60-206 P94R/S102C/A104H/E105D/K138P/K152I/D160K/K162H/T164N/D165A/G167E/K173E/I182V/K190E/K196S): B1 chain
Experimental: (§1) See below for details on sortase expression and purification, and on the synthesis of Abz-LPETGK(Dnp)-CONH2 (SEQ ID NO: 19). […] Reactions were initiated with the addition of enzyme and incubated at 22.5° C. for 3 to 20 minutes before quenching with 0.5 volumes of 1 M HCl. Five to ten nmol of peptide from the quenched reactions were injected onto an analytical reverse-phase Eclipse XDB-C18 HPLC column (4.6×150 mm, 5 μm, Agilent Technologies) and chromatographed using a gradient of 10 to 65% acetonitrile with 0.1% TFA in 0.1% aqueous TFA over 13 minutes. Retention times under these conditions for the Abz-LPETGK(Dnp)-CONH2 (SEQ ID NO: 19) substrate, the released GKDnp peptide, and the Abz-LPETGGG-COOH (SEQ ID NO: 20) product were 12.8, 10.4, and 9.1 min, respectively. To calculate the percent conversion, the ratio of the integrated areas of the Abz-LPETGGG-COOH (SEQ ID NO: 20) and Abz-LPETGK(Dnp)-CONH2 (SEQ ID NO: 19) peptide Abs220 peaks was compared to a standard curve generated by mixing the product and starting peptide in known ratios. To determine […] and Km, reaction rates were fit to the Michaelis-Menten equation using OriginPro 7.0 software. All kinetics values reported represent the average of at least three measurements. Percent conversion was also calculated by using the ratio of the integrated areas of the GK(Dnp)-CONH2 and Abz-LPETGK(Dnp)-CONH2 peptide Abs355 peaks were compared directly (Example 5). To determine kcat and Km, LPETG, reaction rates were fit to the Michaelis-Menten equation using Microsoft Excel using the Solver add-in. To determine Km,GGG and KH, reaction rates were fit to the modified Michaelis-Menten, for which KH is as defined when KH<<Km,GGG.
Assays to determine eSrtA, eSrtA(2A-9) and eSrtA(4S-9) specificity were performed by preparing 10 μM stocks of Abz-LXEXGK(Dnp) (SEQ ID NO: 75) peptides in 300 mM Tris pH 7.5, 150 mM NaCl, 5 mM CaCl2, 5% v/v DMSO, and 100 mM Gly-Gly-Gly-COOH (GGG). Reactions were performed by adding eSrtA(2A-9) to a final concentration of 450 nM, eSrtA(4S-9) to a final concentration of 115 nM or eSrtA to a final concentration of 47.5 nM and a final volume of 100 μL, then incubating at 22.5° C. for 15 minutes. Reactions were quenched by the addition of 0.2 volumes of 5 M HCl, then were injected onto an analytical reverse-phase Eclipse XDB-C18 HPLC column (4.6×150 mm, 5 μm, Agilent Technologies) and chromatographed using a gradient of 10 to 65% acetonitrile with 0.1% TFA in 0.1% aqueous TFA over 13 minutes. […]

[1] = molecular target: T2, LPETG (Abz-LPETGK(Dnp)-CONH2) (Staphylococcus aureus, UniProt Q2FV99, D160N/D165A/K190E/K196T/P94R); experiment: In vitro sortase kinetics HPLC assay, LPETG substrate; format: biochemical; details: cognate LPETG substrate
T2 construct: All expressed sortases lack the N-terminal 59 amino acids; inferred from Ni-NTA purification; made in house; host or cells: E. coli BL21 (DE3), pET29
T2 sequence (Q2FV99 60-206 P94R/D160N/D165A/G167E/K190E/K196T): B2 chain
Summary of the method: (§2)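 Abz-LXEXGK(Dnp) peptides in 300 mM Tris pH 7.5, 150 mM NaCl, 5 mM CaCl2, 5% DMSO, GGG; 22.5° C., acid-quenched, converted fraction by reverse-phase HPLC peak areas. kcat and Km from eight substrate concentrations fit to Michaelis-Menten; KH at 1 mM substrate over eight GGG levels.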

[2] = molecular target: T3, LAETG (Abz-LAETGK(Dnp)-CONH2) (Staphylococcus aureus, UniProt Q2FV99, D160N/D165A/K190E/K196T/P94R); experiment: In vitro sortase kinetics HPLC assay, LAETG substrate; format: biochemical; details: candidate LAETG target
T3 construct: All expressed sortases lack the N-terminal 59 amino acids; inferred from Ni-NTA purification; made in house; host or cells: E. coli BL21 (DE3), pET29
T3 sequence (Q2FV99 60-206 P94R/D160N/D165A/G167E/K190E/K196T): B2 chain
Summary of the method: as §2

LPECG = experiment: In vitro sortase kinetics HPLC assay, LPECG substrate; format: biochemical
Experimental: as §1
Assays to determine eSrtA, eSrtA(2A-9) and eSrtA(4S-9) specificity were performed by preparing 10 μM stocks of Abz-LXEXGK(Dnp) (SEQ ID NO: 75) peptides in 300 mM Tris pH 7.5, 150 mM NaCl, 5 mM CaCl2, 5% v/v DMSO, and 100 mM Gly-Gly-Gly-COOH (GGG). Reactions were performed by adding eSrtA(2A-9) to a final concentration of 450 nM, eSrtA(4S-9) to a final concentration of 115 nM or eSrtA to a final concentration of 47.5 nM and a final volume of 100 μL, then incubating at 22.5° C. for 15 minutes. Reactions were quenched by the addition of 0.2 volumes of 5 M HCl, then were injected onto an analytical reverse-phase Eclipse XDB-C18 HPLC column (4.6×150 mm, 5 μm, Agilent Technologies) and chromatographed using a gradient of 10 to 65% acetonitrile with 0.1% TFA in 0.1% aqueous TFA over 13 minutes. Retention times under these conditions for the Abz-LPETGK(Dnp)-CONH2 (SEQ ID NO: 19) substrate, the released GKDnp peptide, and the Abz-LPETGGG-COOH (SEQ ID NO: 20) product were 12.8, 10.4, and 9.1 min, respectively, while the remaining Abz-LXEXGK(Dnp)-CONH2 (SEQ ID NO: 74) substrates varied in retention time between 9 and 13 minutes. To calculate the percent conversion, the ratio of the integrated areas of the GK(Dnp)-CONH2 and Abz-LPETGK(Dnp)-CONH2 (SEQ ID NO: 19) peptide Abs355 peaks were compared directly. Subsequent determination of kcat/Km and KH were performed as described for in vitro SrtA characterization.
The original pentamutant comprising the mutations P94R, D160N, D165A, K190E, and K196T is referred to as eSrtA. Sortase variants herein were evolved using eSrtA as the parent enzyme in the evolution experiments. In some cases, an evolved sortase comprises a N160K mutation instead of a D160N or a T196S mutation instead of a K196T. Parameters are reported with their standard deviations as determined from three technical replicates. kcat, Km and kcat/Km parameters were determined at 100 mM GGG concentration, while Km,GGG and KH parameters were determined at 1 mM concentration of the listed substrate.

[3] = system: LPETG (Abz-LPETGK(Dnp)-CONH2); details: cited from earlier work
[4] = molecular target: T4, LPESG (Abz-LPESGK(Dnp)-CONH2) (Staphylococcus aureus, UniProt Q2FV99, D160N/D165A/K190E/K196T/P94R); experiment: In vitro sortase kinetics HPLC assay, LPESG substrate; format: biochemical; details: ratio of kcat/KM
T4 construct: All expressed sortases lack the N-terminal 59 amino acids; inferred from Ni-NTA purification; made in house; host or cells: E. coli BL21 (DE3), pET29
T4 sequence (Q2FV99 60-206 P94R/D160N/D165A/G167E/K190E/K196T): B2 chain
Summary of the method: as §2

[5] = Sub LPECG, 100 mM GGG, read-out: Km

Row | Molecule | KH (LRETG; 1 mM LRETG) [µM] | Km (LRETG; 1 mM LRETG, read-out: Km,GGG) [µM] | Kcat (Hz) (LRETG; Sub LRETG, 100 mM GGG) | Km (LRETG; Sub LRETG, 100 mM GGG, read-out: Km) [µM] | Km [1] [µM] | Km [2] [µM] | activity for LPECG compared with LPETG (LPECG) | KH (LPECG; 1 mM LPECG) [µM] | Km (LPECG; 1 mM LPECG, read-out: Km,GGG) [µM] | Kcat (Hz) (LPECG; Sub LPECG, 100 mM GGG) | Km (LPECG; [5]) [µM] | higher catalytic activity relative to wild-type SrtA [3] | preference for LPETG over LPESG [4] [fold]
1 | B1 | 47.5 ± 1.3 | 628 ± 11 | 0.25 ± 0.02 | 1070 ± 63 |  |  |  |  |  |  |  |  | 
2 | B2 |  |  |  |  | 200 | 6100 | exceeds that of LPETG | 620 ± 150 | 57000 ± 33000 | 3.5 ± 0.3 | 72.5 ± 5.6 | approximately 140 fold | 5
3 | B3 |  |  |  |  |  |  | exceeds that of LPETG | 120 ± 23 | 55000 ± 1400 | 5.0 ± 0.6 | 69 ± 13 |  | 
